Experimental data from patent US20080124280A1.

Assays:
[1] = biological target: purified αVβ3 integrin (UniProt P06756); assay: antibody at 2 µg/ml added to 2 µg purified αVβ3 before [125I]-T4; native gel, band intensity
[2] = biological target: purified αVβ3 integrin (UniProt P06756); assay: antibody at 1 µg/ml added to 2 µg purified αVβ3 before [125I]-T4; native gel, band intensity
[3] = biological target: purified αVβ3 integrin (UniProt P06756); assay: antibody at 4 µg/ml added to 2 µg purified αVβ3 before [125I]-T4; native gel, band intensity
[4] = biological target: purified αVβ3 integrin (UniProt P06756); assay: antibody at 8 µg/ml added to 2 µg purified αVβ3 before [125I]-T4; native gel, band intensity
[5] = biological target: purified αVβ3 integrin (UniProt P06756); assay: antibody at 8 µg/ml added to purified αVβ3 30 min before [125I]-T4; native gel; the legend's value differs from the 59% of paragraph 377

Sequence of purified αVβ3 integrin (P06756 31-1048 limits assumed, form in doubt, chain 1 of 2): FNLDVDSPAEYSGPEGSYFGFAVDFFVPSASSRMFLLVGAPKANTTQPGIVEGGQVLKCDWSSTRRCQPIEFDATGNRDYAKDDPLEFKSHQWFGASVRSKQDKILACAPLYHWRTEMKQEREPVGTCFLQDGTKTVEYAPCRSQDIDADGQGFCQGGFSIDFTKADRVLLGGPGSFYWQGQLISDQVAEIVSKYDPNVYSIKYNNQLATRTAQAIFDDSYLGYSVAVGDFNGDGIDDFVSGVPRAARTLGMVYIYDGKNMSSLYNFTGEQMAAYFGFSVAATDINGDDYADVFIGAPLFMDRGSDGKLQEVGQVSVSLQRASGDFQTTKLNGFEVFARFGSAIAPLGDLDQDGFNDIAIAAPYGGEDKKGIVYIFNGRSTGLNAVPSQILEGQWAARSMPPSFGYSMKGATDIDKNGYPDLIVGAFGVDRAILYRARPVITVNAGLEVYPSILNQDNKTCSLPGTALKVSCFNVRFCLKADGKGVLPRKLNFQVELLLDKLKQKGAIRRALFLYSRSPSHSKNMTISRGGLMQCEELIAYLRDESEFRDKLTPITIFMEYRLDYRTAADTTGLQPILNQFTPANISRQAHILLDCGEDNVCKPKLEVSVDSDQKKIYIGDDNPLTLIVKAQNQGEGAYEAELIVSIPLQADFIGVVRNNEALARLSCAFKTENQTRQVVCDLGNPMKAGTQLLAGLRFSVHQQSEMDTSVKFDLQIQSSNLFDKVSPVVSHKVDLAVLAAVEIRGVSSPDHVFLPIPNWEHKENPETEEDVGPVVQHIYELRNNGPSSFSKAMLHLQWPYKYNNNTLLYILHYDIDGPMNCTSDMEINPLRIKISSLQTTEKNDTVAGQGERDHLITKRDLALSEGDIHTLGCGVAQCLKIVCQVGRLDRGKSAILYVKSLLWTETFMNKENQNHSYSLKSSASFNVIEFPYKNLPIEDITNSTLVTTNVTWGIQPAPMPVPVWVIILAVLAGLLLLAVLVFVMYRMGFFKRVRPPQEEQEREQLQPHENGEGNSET
Sequence of purified αVβ3 integrin (P05106 27-788 limits assumed, form in doubt, chain 2 of 2, further chain): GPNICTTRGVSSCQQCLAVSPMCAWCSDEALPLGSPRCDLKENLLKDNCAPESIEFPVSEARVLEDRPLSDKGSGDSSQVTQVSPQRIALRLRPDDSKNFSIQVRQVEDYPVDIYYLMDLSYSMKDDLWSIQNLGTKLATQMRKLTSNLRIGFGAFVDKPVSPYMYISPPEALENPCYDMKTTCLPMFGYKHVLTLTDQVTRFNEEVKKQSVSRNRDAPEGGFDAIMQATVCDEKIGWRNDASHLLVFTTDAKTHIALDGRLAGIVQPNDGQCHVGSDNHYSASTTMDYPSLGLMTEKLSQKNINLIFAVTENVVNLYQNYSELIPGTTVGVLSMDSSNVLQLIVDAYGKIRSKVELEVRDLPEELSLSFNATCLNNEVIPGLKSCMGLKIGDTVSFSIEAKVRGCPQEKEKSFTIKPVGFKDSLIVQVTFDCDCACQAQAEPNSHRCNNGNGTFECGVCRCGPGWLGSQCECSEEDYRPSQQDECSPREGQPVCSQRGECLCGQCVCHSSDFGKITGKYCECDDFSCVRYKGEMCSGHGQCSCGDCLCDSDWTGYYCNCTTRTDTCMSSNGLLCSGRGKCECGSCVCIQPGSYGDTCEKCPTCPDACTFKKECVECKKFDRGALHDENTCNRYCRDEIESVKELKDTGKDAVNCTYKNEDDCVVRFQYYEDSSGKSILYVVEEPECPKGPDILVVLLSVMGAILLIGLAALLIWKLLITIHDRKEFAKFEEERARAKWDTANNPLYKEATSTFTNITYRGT

monoclonal antibody LM609 to αVβ3
percent decrease of band intensity (integrin-[125I]T4 complex) [1]: 64%
percent reduction of integrin-[125I]T4 complex formation [2]: 52%
percent decrease of band intensity (integrin-[125I]T4 complex) [3]: 63%
percent decrease of band intensity (integrin-[125I]T4 complex) [4]: 81%

monoclonal antibody SC7312 to αVβ3
percent reduction of T4 binding to αVβ3 [5]: 58%
percent reduction of T4 binding to αVβ3 [1]: 46%
percent reduction of T4 binding to αVβ3 [2]: 20%
percent reduction of T4 binding to αVβ3 [3]: 47%
percent reduction of T4 binding to αVβ3 [4]: 59%
